Assay results: patent publication US20060281109, “Polymerases” (published 2006)
Substitutions are numbered along the chain they refer to.

T1: 9°N-7 YAV C223S exo- 71 deletion (C-terminus 704) (Thermococcus sp. 9°N-7) (UniProt Q56366)
T1 sequence: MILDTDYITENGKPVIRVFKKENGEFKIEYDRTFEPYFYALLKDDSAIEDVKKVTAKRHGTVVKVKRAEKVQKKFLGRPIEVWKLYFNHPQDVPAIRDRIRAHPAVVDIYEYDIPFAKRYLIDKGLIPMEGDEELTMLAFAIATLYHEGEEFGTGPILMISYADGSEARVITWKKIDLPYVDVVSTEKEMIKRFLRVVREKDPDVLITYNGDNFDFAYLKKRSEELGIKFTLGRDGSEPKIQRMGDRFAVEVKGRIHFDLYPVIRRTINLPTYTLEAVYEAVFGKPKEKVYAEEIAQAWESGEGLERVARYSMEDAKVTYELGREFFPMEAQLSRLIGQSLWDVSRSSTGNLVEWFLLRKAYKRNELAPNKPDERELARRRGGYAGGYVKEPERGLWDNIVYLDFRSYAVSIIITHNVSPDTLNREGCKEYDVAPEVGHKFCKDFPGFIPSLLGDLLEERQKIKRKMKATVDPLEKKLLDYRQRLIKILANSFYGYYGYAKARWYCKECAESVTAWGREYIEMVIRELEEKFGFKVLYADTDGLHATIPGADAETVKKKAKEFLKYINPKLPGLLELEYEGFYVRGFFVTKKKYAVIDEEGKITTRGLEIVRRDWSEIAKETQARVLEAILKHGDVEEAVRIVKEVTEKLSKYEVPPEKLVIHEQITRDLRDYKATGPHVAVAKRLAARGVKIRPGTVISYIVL

T2: 9°N-7 DNA polymerase YAV C223S exo- (clone 9) C223S,L408Y,Y409A,P410V (Thermococcus sp. 9°N-7) (UniProt Q56366)
T2 sequence: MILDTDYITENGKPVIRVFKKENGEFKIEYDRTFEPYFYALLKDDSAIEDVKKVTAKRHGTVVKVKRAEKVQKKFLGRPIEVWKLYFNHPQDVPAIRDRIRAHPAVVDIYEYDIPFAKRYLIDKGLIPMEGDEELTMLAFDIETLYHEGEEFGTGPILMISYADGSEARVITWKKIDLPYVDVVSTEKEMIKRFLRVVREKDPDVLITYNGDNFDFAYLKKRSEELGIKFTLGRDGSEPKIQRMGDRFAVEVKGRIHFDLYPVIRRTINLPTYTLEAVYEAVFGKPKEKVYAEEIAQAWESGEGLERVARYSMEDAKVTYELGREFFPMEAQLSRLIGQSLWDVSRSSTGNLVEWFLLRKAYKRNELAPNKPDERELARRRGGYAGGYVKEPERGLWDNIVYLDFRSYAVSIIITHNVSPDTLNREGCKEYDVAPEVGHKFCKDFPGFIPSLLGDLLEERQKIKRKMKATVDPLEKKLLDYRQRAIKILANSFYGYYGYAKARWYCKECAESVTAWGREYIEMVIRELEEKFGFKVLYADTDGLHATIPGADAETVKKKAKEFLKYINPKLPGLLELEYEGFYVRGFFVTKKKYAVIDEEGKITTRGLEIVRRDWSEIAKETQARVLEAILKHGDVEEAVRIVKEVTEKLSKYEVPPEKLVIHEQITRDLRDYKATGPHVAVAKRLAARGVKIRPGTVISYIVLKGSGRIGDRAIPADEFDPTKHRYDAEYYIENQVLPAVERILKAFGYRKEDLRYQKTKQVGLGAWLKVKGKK

T3: 9°N-7 YAV C223S exo- K705A (Thermococcus sp. 9°N-7, UniProt Q56366 SEQ:1-775)
T3 chain: T2 sequence with D141A, E143A, A485L, R743A

T4: 9°N-7 YAV C223S exo- R713A (Thermococcus sp. 9°N-7) (UniProt Q56366)
T4 sequence: T2 sequence with D141A, E143A, A485L, R713A

T5: 9°N-7 YAV C223S exo- R743A (Thermococcus sp. 9°N-7) (UniProt Q56366)
T5 sequence: T2 sequence with D141A, E143A, A485L, K705A

B1: A-template hairpin oligo 815 (structured_DNA)
DNA: CGATCACGATCACGATCACGATCACGATCACGATCACGCTGATGTGCATGCTGTTGTTTTTTTACAACAGCATGCACATCAGCG
modifications: 5'-amino, surface coupled

Legend:
[1] = molecular target: T1, 9°N-7 YAV C223S exo- 71 deletion (C-terminus 704) (Thermococcus sp. 9°N-7); details: crude enzyme; kobs relative to YAV, essentially inactive
[2] = molecular target: T2, 9°N-7 DNA polymerase YAV C223S exo- (clone 9) C223S,L408Y,Y409A,P410V (Thermococcus sp. 9°N-7); details: burst kobs, DNA:pol 5:1; biphasic, burst amplitude 19%
[3] = molecular target: T3, 9°N-7 YAV C223S exo- K705A; details: burst kobs, DNA:pol 5:1; biphasic, burst amplitude ~28%
[4] = molecular target: T4, 9°N-7 YAV C223S exo- R713A (Thermococcus sp. 9°N-7); details: kobs, DNA:pol 5:1; single exponential, amplitude ~90%
[5] = molecular target: T5, 9°N-7 YAV C223S exo- R743A (Thermococcus sp. 9°N-7); details: kobs, DNA:pol 5:1; single exponential, amplitude ~90%
[6] = molecular target: T3, 9°N-7 YAV C223S exo- K705A; assay: washing assay; similar response to clone 9; details: hairpin with 5' overhang
Method: Once washed, each well was incubated with a 20 μl aliquot of 500 nM enzyme (clone 9, K705A, R713A or R743A mutants) at 45° C. for 30 minutes. Post incubation, each well was washed with […] 10 mM Tris pH 8.0, 10 mM EDTA including varying concentrations of NaCl (0, 0.05, 0.1, 0.3, 0.4, 0.75, 1.0, 2.0 M) and then […] MilliQ water. Wells were subsequently pre-equilibrated with enzymology buffer prior to a further incubation of 20 μl of 2 μM ffT-N3-647 at 45° C. for 30 minutes. Wells were washed with 3×100 ml high salt wash buffer (10 mM Tris pH 8.0, 1M NaCl, 10 mM EDTA) and then 3×100 ml MilliQ water. Strips scanned on Typhoon fluorescence imager (y5 filter, PMT=500 V).

Row | Molecule | relative kobs (% of YAV) [1] [%] | activity [2] [s⁻¹] | activity [3] [s⁻¹] | activity [4] [s⁻¹] | activity [5] [s⁻¹] | binding result [6]
1 | 10 A hairpin DNA | 21 | 0.06 | 0.06 | 0.01 | 0.004 | 
2 | B1 |  |  |  |  |  | binds
